Data as given in patent US20200172620A1.

Columns and labels:
[1] = target: human CD8 on cells (FACS) (human) (UniProt P01732); experiment: FACS
[2] = target: human CD8 (as used in SPR) (human) (UniProt P01732); experiment: SPR
Chain of human CD8 (as used in SPR) (human) (P01732 22-182): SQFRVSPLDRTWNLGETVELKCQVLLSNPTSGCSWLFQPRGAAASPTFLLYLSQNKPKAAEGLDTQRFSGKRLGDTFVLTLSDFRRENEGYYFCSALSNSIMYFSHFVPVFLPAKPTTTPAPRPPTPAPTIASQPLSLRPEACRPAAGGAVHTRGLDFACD

Chain of human CD8 on cells (FACS) (human) (P01732 22-235): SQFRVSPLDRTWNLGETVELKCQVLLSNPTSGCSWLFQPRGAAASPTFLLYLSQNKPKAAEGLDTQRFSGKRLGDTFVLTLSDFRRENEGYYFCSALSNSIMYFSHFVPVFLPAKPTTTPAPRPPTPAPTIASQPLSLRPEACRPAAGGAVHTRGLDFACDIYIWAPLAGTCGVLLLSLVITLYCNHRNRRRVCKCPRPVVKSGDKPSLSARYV

Kd [1]: 20 nM
Kd [2]: 13 nM
Ratio of KD huOKT8.v1/KD variant for binding to huCD8 [2]: 1 X
B1: OKT8 (antibody, from another filing, V domains shown)
VH: EVQLQQSGAELVKPGASVKLSCTASGFNIKDTYIHFVRQRPEQGLEWIGRIDPANDNTLYASKFQGKATITADTSSNTAYMHLCSLTSGDTAVYYCGRGYGYYVFDHWGQGTTLTVSS
VL: DVQINQSPSFLAASPGETITINCRTSRSISQYLAWYQEKPGKTNKLLIYSGSTLQSGIPSRFSGSGSGTDFTLTISGLEPEDFAMYYCQQHNENPLTFGAGTKLELK
